Experiments:
[1] = target: T1, Bd2924 (Bdellovibrio bacteriovorus, UniProt Q6MJ59); experiment: X-ray crystal structure, […] Å; type: binding; settings: without C10-CoA; one FAD per monomer at the dimer interface
T1 construct: crystal structure residues 3 to 505; homo-tetramer (dimer of dimers)
T1 sequence (Q6MJ59 3-505): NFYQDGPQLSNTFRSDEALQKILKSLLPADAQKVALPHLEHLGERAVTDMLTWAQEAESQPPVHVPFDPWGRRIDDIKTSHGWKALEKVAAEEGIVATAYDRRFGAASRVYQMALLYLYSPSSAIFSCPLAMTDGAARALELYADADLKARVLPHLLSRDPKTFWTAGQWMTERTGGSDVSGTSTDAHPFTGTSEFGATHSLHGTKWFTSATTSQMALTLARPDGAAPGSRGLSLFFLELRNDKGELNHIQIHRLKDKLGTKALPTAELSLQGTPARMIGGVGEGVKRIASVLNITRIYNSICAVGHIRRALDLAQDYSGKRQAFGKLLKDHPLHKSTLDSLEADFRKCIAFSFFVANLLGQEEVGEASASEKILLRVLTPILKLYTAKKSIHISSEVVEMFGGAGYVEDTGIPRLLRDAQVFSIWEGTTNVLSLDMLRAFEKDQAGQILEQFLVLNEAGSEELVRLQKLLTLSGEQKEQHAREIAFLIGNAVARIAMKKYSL

[2] = target: Afp7, tube initiator of the antifeeding prophage (AFP) (Serratia entomophila); experiment: cryo-EM structure; needle of the AFP particle, threefold symmetric, 3.4 Å, PDB 6RBK
[3] = target: Afp8, needle protein of the antifeeding prophage (AFP) (Serratia entomophila); experiment: as above
[4] = target: Afp16, cap protein of the antifeeding prophage (AFP) (Serratia entomophila); experiment: cryo-EM structure; apical end cap of the AFP particle in the extended state, sixfold symmetric, 3.3 Å, PDB 6RAP
[5] = target: Bd2924, putative acyl-CoA dehydrogenase (ACAD) from B. bacteriovorus (B. bacteriovorus); experiment: SEC; Bd2924 in solution, size exclusion chromatography
[6] = target: Bd2924, putative acyl-CoA dehydrogenase (ACAD) from B. bacteriovorus (B. bacteriovorus); experiment: crystal structure; Bd2924 with FAD, with and without C10-CoA, PDB 6SD8 and 6SDA
[7] = target: CdiI^Kp342 immunity protein (Klebsiella pneumoniae 342); experiment: crystal structure; CdiA-CT•CdiI complex from K. pneumoniae 342, PDB 6CP9, 2.55 Å
[8] = target: Pentafunctional AROM complex from Chaetomium thermophilum (Chaetomium thermophilum); experiment: crystal structure; CtAROM, X-ray, 3.00 Å, no PDB id
[9] = target: Pentafunctional AROM complex from Chaetomium thermophilum (Chaetomium thermophilum); experiment: not stated; CtAROM before crystallisation; homodimer of about 340 kDa; method not given
[10] = target: gp37 (distal part) of the Salmonella phage S16 long tail fiber (Salmonella phage S16); experiment: crystal structure; distal part of gp37 connected to gp38, phage S16, PDB 6F45, 1.70 Å
[11] = target: the molecule itself; experiment: crystal structure; recombinant AxlA with cleaved xyloglucan oligosaccharide, PDB 6DRU, 2.7 Å; quaternary assembly examined with EPPIC
[12] = target: the molecule itself; experiment: crystal structure; MAJIN-TERB2 core complex, PDB 6GNX, X-ray, 2.90 Å

Cc1cc2nc3c(=O)[nH]c(=O)nc-3n(C[C@H](O)[C@H](O)[C@H](O)COP(=O)(O)OP(=O)(O)OC[C@H]3O[C@@H](n4cnc5c(N)ncnc54)[C@H](O)[C@@H]3O)c2cc1C [FAD]
X-ray crystal structure, 1.51 Å [1]: A single FAD molecule binds per monomer in a crevice located at the dimer interface

Afp7, tube initiator of the antifeeding prophage (AFP) (natural protein)
stoichiometry N [2]: 6

Afp8, needle protein of the antifeeding prophage (AFP) (natural protein)
stoichiometry N [3]: 3

Afp16, cap protein of the antifeeding prophage (AFP) (natural protein)
stoichiometry N [4]: 6

Bd2924, putative acyl-CoA dehydrogenase (ACAD) from B. bacteriovorus (enzyme)
stoichiometry N [5]: 4
stoichiometry N [6]: 4

CdiI^Kp342 immunity protein (natural protein)
stoichiometry N [7]: 2

Pentafunctional AROM complex from Chaetomium thermophilum (enzyme)
stoichiometry N [8]: 2
stoichiometry N [9]: 2

gp37 (distal part) of the Salmonella phage S16 long tail fiber (domain or fragment)
stoichiometry N [10]: 3

B1: α-xylosidase from Aspergillus niger (AxlA), glycoside hydrolase family 31 (enzyme, UniProt G3XMN9 19-736, looked up)
chain: TYFAPNSTGLRIQHGFETILIQPFGYDGFRVRAWPFRPPSGNEISFIYDPPIEGYEDTAHGMSYDTATTGTEPRTLRNGNIILRTTGWGGTTAGYRLSFYRVNDDGSETLLTNEYAPLKSLNPRYYYWPGPGAEFSAEFSFSATPDEQIYGTGTQQDHMINKKGSVIDMVNFNSYIPTPVFMSNKGYAFIWNMPAEGRMEFGTLRTRFTAASTTLVDYVIVAAQPGDYDTLQQRISALTGRAPAPPDFSLGYIQSKLRYENQTEVELLAQNFHDRNIPVSMIVIDYQSWAHQGDWALDPRLWPNVAQMSARVKNLTGAEMMASLWPSVADDSVNYAALQANGLLSATRDGPGTTDSWNGSYIRNYDSTNPSARKFLWSMLKKNYYDKGIKNFWIDQADGGALGEAYENNGQSTYIESIPFTLPNVNYAAGTQLSVGKLYPWAHQQAIEEGFRNATDTKEGSACDHVSLSRSGYIGSQRFCSMIWSGDTTSVWDTLAVQVASGLSAAATGWGWWTVDAGGFEVDSTVWWSGNIDTPEYRELYVRWLAWTTFLPFMRTHGSRTCYFQDAYTCANEPWSYGASNTPIIVSYIHLRYQLGAYLKSIFNQFHLTGRSIMRPLYMDFEKTDPKISQLVSSNSNYTTQQYMFGPRLLVSPVTLPNVTEWPVYLPQTGQNNTKPWTYWWTNETYAGGQVVKVPAPLQHIPVFHLGSREELLSGNVF
notes: AxlA, Aspergillus niger, UniProt G3XMN9; also called T1009; source: recombinant
stoichiometry N [11]: 2

B2: MAJIN (core of the human MAJIN-TERB2 complex) (domain or fragment)
chain: GSMSLKPFTYPFPETRFLHAGPNVYKFKIRYGKSIRGEEIENKEVITQELEDSVRVVLGNLDNLQPFATEHFIVFPYKSKWERVSHLKFKHGEIILIPYPFVFTLYVEMKWFHE
notes: MAJIN, human, the part in the MAJIN-TERB2 core complex; also called T0980s1; H0980 subunit A
stoichiometry N [12]: 2

Reference: paper PMC6851490, “Target highlights in CASP13: Experimental target structures through the eyes of their authors” (Proteins, 2019)
